Results on 20 molecules are retold here after US20030215458A1 (published 2003).

In one assay the target is T1, mouse B6 class I antigens (D^b or K^b molecules on the surface of RMA-S cells) (mouse, UniProt P01887 21-119). Briefly: RMA-S cells incubated with peptide (25 ug/ml), stained with FITC anti-D^b or anti-K^b, flow cytometry. On the technique in general: In flow cytometry, cells or beads pass a laser one at a time.
T1 sequence (P01887 21-119): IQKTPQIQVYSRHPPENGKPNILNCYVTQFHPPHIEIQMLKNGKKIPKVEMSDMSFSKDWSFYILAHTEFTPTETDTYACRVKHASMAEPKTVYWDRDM
On to NLYQMTSQL [WT1 peptide p225-233 (NLYQMTSQL)], for which the “Binding Affinity to Mouse MHC Class I (% increase of D^b or K^b on RMA-S cells)” value was 5.8%.
SCLESQPAI (also called human p136-144) [WT1 peptide p136-144 human (SCLESQPAI)]: the “Binding Affinity to Mouse MHC Class I (% increase of D^b or K^b on RMA-S cells)” value was 52%.
With ALLPAVPSL (also called human p10-18) [WT1 peptide p10-18 human (ALLPAVPSL)], the “Binding Affinity to Mouse MHC Class I (% increase of D^b or K^b on RMA-S cells)” value was 2.2%.
Same read-out and setting: for CMTWNQMNL [WT1 peptide p235-243 (CMTWNQMNL)] the value was 33.6%; for GCNKRYFKL [WT1 peptide p329-337 (GCNKRYFKL)], 1.2%; for YSSDNLYQM [WT1 peptide p221-229 (YSSDNLYQM)], 0.8%.
The same measure, in the same setting: for NQMNLGATL [WT1 peptide p239-247 (NQMNLGATL)] the value was 1%.
Still for that read-out and setting: the figure for QMTSQLECM [WT1 peptide p228-236 (QMTSQLECM)] is 1.2%.

Another assay has as its target T1, mouse B6 class I antigens (D^b or K^b …). Briefly: binding of 9-mer peptides within p117-139 to mouse B6 (H-2^b) class I; RMA-S cell assay, flow cytometry.
With SSGQARMFP [WT1 peptide P121-129 (SSGQARMFP)], the “Binding Affinity to Mouse MHC Class I (%)” value (shortened to “Binding Affinity … (%)”) is 1%.
Regarding FPNAPYLPS [WT1 peptide P128-136 (FPNAPYLPS)], the “Binding Affinity … (%)” value came out at 1%.
The same measure, in the same setting: the figure for PNAPYLPSC [WT1 peptide P129-137 (PNAPYLPSC)] is 1%; for ASSGQARMF [WT1 peptide P120-128 (ASSGQARMF)] it is 1%; for ARMFPNAPY [WT1 peptide P125-133 (ARMFPNAPY)] it is 1%.
On the same count and under the same terms, for NAPYLPSCL [WT1 peptide P130-138 (NAPYLPSCL)] the value was 79%.
On the same count and under the same terms, for QASSGQARM [WT1 peptide P119-127 (QASSGQARM)] the value was 2%.
On to QARMFPNA [WT1 peptide P124-132 (printed QARMFPNA)], for which the “Binding Affinity … (%)” value was determined as 1%.
Still for that read-out and setting: for MFPNAPYLP [WT1 peptide P127-135 (MFPNAPYLP)] the value was 2%; for PSQASSGQA [WT1 peptide P117-125 (PSQASSGQA)], 2%; for APYLPSCLE [WT1 peptide P131-139 (APYLPSCLE)], 1%.
The same measure, in the same setting: for SQASSGQAR [WT1 peptide P118-126 (SQASSGQAR)] the value was 2%.
